Assay results: the supplement of paper PMC10567573

B1: TRAF3IP2 (parent)
chain: YGHDYPRAAYQQVIQPALPGQPLP

Variants of: B1
Assay: protein stability index of a GFP-peptide fusion (GPS, HEK-293T) (PSI 1-6); higher = more stable
Conditions: c terminus: a fixed tail appended
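Also: lentivirally expressed fusions sorted by FACS into six bins by GFP to DsRed ratio, PSI derived from sequencing read proportions per bin multiplied by bin number.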

| Variant | protein stability index |
| --- | --- |
| YGHDYPIAAYQQVIQPALPGQPLP [R7I] | 2.51 |
| YGHDYPTAAYQQVIQPALPGQPLP [R7T] | 2.6 |
| YGHDYPRAAYQVVIQPALPGQPLP [Q12V] | 3.04 |
| YGHDYPRAAYQAVIQPALPGQPLP [Q12A] | 1.96 |
| YGHDYPRAAYQKVIQPALPGQPLP [Q12K] | 2.37 |
| YGHDYPRAAYQGVIQPALPGQPLP [Q12G] | 2.79 |
| YGHDYPRAAYQSVIQPALPGQPLP [Q12S] | 2.13 |
| YGHDYPRAAYQLVIQPALPGQPLP [Q12L] | 1.98 |
| YGHDYPRAAYQQVIQAALPGQPLP [P16A] | 1.94 |
| YGHDYPRAAYQQVIQMALPGQPLP [P16M] | 1.89 |
| YGHDYPRAAYQQVIQKALPGQPLP [P16K] | 2.48 |
| YGHDYPRAAYQQVIQLALPGQPLP [P16L] | 1.39 |
| YGHDYPRAAYQQVIQWALPGQPLP [P16W] | 3.06 |
| YGHDYPRAAYQQVIQGALPGQPLP [P16G] | 1.54 |
| YGHDYPRAAYQQVIQEALPGQPLP [P16E] | 2.25 |
| YGHDYPRAAYQQVIQHALPGQPLP [P16H] | 1.57 |
| YGHDYPRAAYQQVIQFALPGQPLP [P16F] | 2.74 |
| YGHDYPRAAYQQVIQNALPGQPLP [P16N] | 1.95 |
| YGHFYPRAAYQQVIQPALPGQPLP [D4F] | 1.56 |
| YGHWYPRAAYQQVIQPALPGQPLP [D4W] | 2.08 |
| YGHRYPRAAYQQVIQPALPGQPLP [D4R] | 2.21 |
| YGHKYPRAAYQQVIQPALPGQPLP [D4K] | 2.7 |
| YGHYYPRAAYQQVIQPALPGQPLP [D4Y] | 2.9 |
| YGHQYPRAAYQQVIQPALPGQPLP [D4Q] | 1.85 |

| Variant | protein stability index |
| --- | --- |
| YGHIYPRAAYQQVIQPALPGQPLP [D4I] | 2.1 |
| YGHHYPRAAYQQVIQPALPGQPLP [D4H] | 1.94 |
| YGHPYPRAAYQQVIQPALPGQPLP [D4P] | 3.33 |
| YGHTYPRAAYQQVIQPALPGQPLP [D4T] | 2.13 |
| YGHEYPRAAYQQVIQPALPGQPLP [D4E] | 1.81 |
| YGHNYPRAAYQQVIQPALPGQPLP [D4N] | 2.42 |
| YGHDYPRAAYQQVIQPARPGQPLP [L18R] | 2.12 |
| YGHDYPRAAYQQVIQPAEPGQPLP [L18E] | 2.06 |
| YGHDYPRAAYQQVIQPAIPGQPLP [L18I] | 2.16 |
| YGHDYPRAAYQQVIQPAGPGQPLP [L18G] | 2.01 |
| YGHDYPRAAYQQVIQPAFPGQPLP [L18F] | 2.59 |
| YGHDYPRAAYQQVIQPAYPGQPLP [L18Y] | 2.26 |
| YGHDYPRAAYQQVIQPAVPGQPLP [L18V] | 1.65 |
| YGHDYPRAAYQQVIQPAWPGQPLP [L18W] | 2.01 |
| YGHDYPRAAYQQVIQPAKPGQPLP [L18K] | 2.15 |
| YGHDYPRAAYQQVIQPAAPGQPLP [L18A] | 1.75 |
| YGHDSPRAAYQQVIQPALPGQPLP [Y5S] | 4.1 |
| YGHDPPRAAYQQVIQPALPGQPLP [Y5P] | 3.99 |
| YGHDHPRAAYQQVIQPALPGQPLP [Y5H] | 3.73 |
| YGHDLPRAAYQQVIQPALPGQPLP [Y5L] | 3.58 |
| YGHDGPRAAYQQVIQPALPGQPLP [Y5G] | 3.78 |
| YGHDQPRAAYQQVIQPALPGQPLP [Y5Q] | 3.83 |
| YGHDCPRAAYQQVIQPALPGQPLP [Y5C] | 3.5 |
| YGHDIPRAAYQQVIQPALPGQPLP [Y5I] | 3.43 |

| Variant | protein stability index |
| --- | --- |
| YGHDVPRAAYQQVIQPALPGQPLP [Y5V] | 3.46 |
| YGHDYPRAAYQQVIQPALMGQPLP [P19M] | 2.34 |
| YGHDYPRAAYQQVIQPALYGQPLP [P19Y] | 1.87 |
| YGHDYPRAAYQQVIQPALSGQPLP [P19S] | 2.45 |
| YGHDYPRAAYQQVIQPALGGQPLP [P19G] | 1.9 |
| YGHDYPRAAYQQVIQPALNGQPLP [P19N] | 2.07 |
| YGHDYPRAAYQQVIQPALTGQPLP [P19T] | 2.65 |
| YGHDYPRAAYQQVIQPALPGQPAP [L23A] | 2.62 |
| YGHDYPRAAYQQVIQPALPGQPVP [L23V] | 2.5 |
| YGHDYPRAAYQQVIQPALPGQPFP [L23F] | 2.15 |
| YGHDYPRAAYQQVIQPALPGQPQP [L23Q] | 2.24 |
| YGHDYPRAAYQQVIQPALPGQPNP [L23N] | 2.09 |
| YGHDYPRAAYQQVIQPALPGQPPP [L23P] | 1.54 |
| YGHDYPRAAYQQVIQPALPGQPYP [L23Y] | 1.7 |
| YGHDYPRAAYQQVIQPALPGQPWP [L23W] | 1.72 |
| YGHDYPRAAYQQVIQPALPGQPKP [L23K] | 2.2 |
| YGHDYPRAAYQQVIQPALPGQPDP [L23D] | 2.18 |
| FGHDYPRAAYQQVIQPALPGQPLP [Y1F] | 2.12 |
| QGHDYPRAAYQQVIQPALPGQPLP [Y1Q] | 3.73 |
| PGHDYPRAAYQQVIQPALPGQPLP [Y1P] | 4.1 |
| KGHDYPRAAYQQVIQPALPGQPLP [Y1K] | 3.79 |
| LGHDYPRAAYQQVIQPALPGQPLP [Y1L] | 3.95 |
| YGHDYARAAYQQVIQPALPGQPLP [P6A] | 2.44 |
| YGHDYDRAAYQQVIQPALPGQPLP [P6D] | 3.52 |

| Variant | protein stability index |
| --- | --- |
| YGHDYSRAAYQQVIQPALPGQPLP [P6S] | 2.6 |
| YGHDYMRAAYQQVIQPALPGQPLP [P6M] | 1.79 |
| YGHDYHRAAYQQVIQPALPGQPLP [P6H] | 1.93 |
| YGHDYRRAAYQQVIQPALPGQPLP [P6R] | 1.99 |
| YGHDYERAAYQQVIQPALPGQPLP [P6E] | 2.82 |
| YGHDYPRAAQQQVIQPALPGQPLP [Y10Q] | 2.07 |
| YGHDYPRAACQQVIQPALPGQPLP [Y10C] | 2.39 |
| YGHDYPRAALQQVIQPALPGQPLP [Y10L] | 2 |
| YGHDYPRAARQQVIQPALPGQPLP [Y10R] | 1.7 |
| YGHDYPRAAKQQVIQPALPGQPLP [Y10K] | 2.36 |
| YGHDYPRAAAQQVIQPALPGQPLP [Y10A] | 1.79 |
| YGHDYPRAAFQQVIQPALPGQPLP [Y10F] | 2.33 |
| YGHDYPRAAPQQVIQPALPGQPLP [Y10P] | 2.28 |
| YGHDYPRAAYQQWIQPALPGQPLP [V13W] | 2.4 |
| YGHDYPRAAYQQLIQPALPGQPLP [V13L] | 2.26 |
| YGHDYPRAAYQQGIQPALPGQPLP [V13G] | 2.45 |
| YGHDYPRAAYQQAIQPALPGQPLP [V13A] | 2.17 |
| YGHDYPRAAYQQPIQPALPGQPLP [V13P] | 2.52 |
| YGHDYPRAAYQQCIQPALPGQPLP [V13C] | 2.04 |
| YGHDYPRAAYQQKIQPALPGQPLP [V13K] | 1.75 |
| YGHDYPRAAYQQHIQPALPGQPLP [V13H] | 2.02 |
| YGHDYPRAAYQQYIQPALPGQPLP [V13Y] | 2.03 |
